Measurements reported in US20250290928A1, “METHOD, KIT AND DEVICE FOR DETECTING EXTRACELLULAR VESICLES” (priority 2022, published 2025).
No end group written: not given here. *: point of attachment. 5FAM = O=C1OC2(c3ccc(O)cc3Oc3cc(O)ccc32)c2ccc(C(=O)*)cc21; TQ2 = quencher; TQ3 = quencher

Assays:
[1] = biological target: T1, MMP14 in the MDA-MB-231-derived extracellular vesicles (Homo sapiens, UniProt P50281); test: Evaluation of MMP14 activity of MDA-MB-231-derived extracellular vesicles with 96-well plate; format: biochemical; conditions: for reaction rate per 1 μg/mL of extracellular vesicles: within 1 hour
T1 construct: in terms of intact MMP14 with a molecular weight of 70 kDa
Description: A relative fluorescence unit difference ΔRFU was calculated by subtracting the measured value of the sample for BG measurement from the measured value of each of the samples.
The concentration of the solution is 41.7 μg/mL. The concentration of the solution was set to x1, and 2-fold serial dilution was performed to prepare standard samples with six concentrations.
50 μL of the MMP14 detection solution was added to 50 μL of each of the samples, a reaction was performed at 37° C., and MMP14 activity was evaluated.
The concentration of the solution is 10 μg/mL.
50 μL of each of the MMP14 detection solutions was added to 50 μL of each of the samples, a reaction was performed at 37° C., and MMP14 activity was evaluated. […]
The concentration of the solution is 20 μg/mL. The concentration of the solution was set to x1, and 3-fold serial dilution was performed to prepare standard samples with three concentrations.
The concentration of the solution is 8 μg/mL.
50 μL of each of the MMP14 detection solutions was added to 50 μL of the sample, a reaction was performed at 37° C., and MMP14 activity was evaluated. […]
50 μL of the MMP14 detection solution was added to 50 μL of each of the samples, a reaction was performed at 30° C., and MMP14 activity was evaluated.
The MMP14 activity of the extracellular vesicles was evaluated with a 96-well plate (137101). A fluorescence intensity was measured with a fluorescence plate reader (Synergy) at 30° C. every 5 minutes for 2 hours. For measurement wavelengths, an excitation wavelength of 545±20 nm and a fluorescence wavelength of 588±20 nm were used. A relative fluorescence unit difference (ΔRFU) was calculated by subtracting the measured value of the sample for BG measurement from the measured value of each of the samples.
50 μL of each of the MMP14 detection solutions was added to 50 μL of each of the samples, a reaction was performed at 30° C., and MMP14 activity was evaluated.

[2] = biological target: T1, MMP14 in the MDA-MB-231-derived extracellular vesicles; test: Digital detection of MDA-MB-231-derived extracellular vesicles through MMP14 activity in wells (microcompartments); format: biochemical; conditions: for Expected value λ (×1): at EV concentration x1
Description: The concentration of the solution is 6.7 μg/mL.
100 μL of the MMP14 detection solution was added to 100 μL of the sample to provide a reaction solution for wells. […] 100 μL of 200 μL of the prepared reaction solution for wells was used in the measurement of MMP14 activity with a 96-well plate.
Next, the wells were filled with the reaction solution by leaving the well array 200 to stand under reduced pressure to degas the space 205. After that, the space 205 was fed with hydrophobic solvents to be sealed. Fluorinated oils AsahiKlin AE-3000 (manufactured by AGC Inc.) and Fomblin Y-25 (manufactured by Solvay S.A.) were used as the hydrophobic solvents. A fluorinated oil Simoa (trademark) SR-X Sealing Oil: 102767 (manufactured by Quanterix Corporation) was further used as another hydrophobic solvent.
Well diameter: 4.25 μm Well depth: 3.25 μm Well capacity: 50 fL Number of wells in array: 239,000 Array range: 3 mm×4 mm
The concentration of the solution is 20 μg/mL. […] The concentration of the solution was set to x1, and 10-fold serial dilution was performed to prepare standard samples with five concentrations.
Next, the wells were filled with the reaction solution by leaving the well array 200 to stand under reduced pressure to degas the space 205. After that, the space 205 was fed with hydrophobic solvents to be sealed.
The concentration of the solution is 20 μg/mL. […] The concentration of the solution was set to x1, and 3-fold serial dilution was performed to prepare standard samples with three concentrations.
The concentration of the solution is 20 μg/mL. […] The concentration of the solution was set to x1, and 2-fold serial dilution was performed to prepare standard samples with four concentrations.
The concentration of the solution is 5 μg/mL.
50 μL of the MMP14 detection solution was added to 50 μL of the sample to provide a reaction solution for wells.
50 μL of each of the MMP14 detection solutions was added to 50 μL of the sample to provide a reaction solution for wells.
The concentration of the solution is 6.7 µg/mL.

[3] = Example 42, EV 2.5 μg/mL, reporter 5 μM, 30° C., 4 hr, TRITC filter
[4] = Example 42, EV 2.5 μg/mL, reporter 5 μM, 30° C., 24 hr, TRITC filter
[5] = Example 9, EV 4 μg/mL, buffer (3), 37° C., Lineweaver-Burk plots
[6] = Example 18, 78.5 fL wells, EV 3.3 μg/mL, reporter 5 μM, 37° C., 3 hours, oil AE-3000 and Y25
[7] = Example 18, 78.5 fL wells, EV 3.3 μg/mL, reporter 5 μM, 37° C., 3 hours, oil Simoa
[8] = Example 19, 37° C., 3 h, EV 0.0001 a.u. (x1=10 μg/mL)
[9] = Example 19, 37° C., 3 h, EV 0.001 a.u. (x1=10 μg/mL)
[10] = Example 19, 37° C., 3 h, EV 0.01 a.u. (x1=10 μg/mL)
[11] = Example 19, 37° C., 3 h, EV 0.1 a.u. (x1=10 μg/mL)
[12] = Example 19, 37° C., 3 h, EV 1 a.u. (x1=10 μg/mL)
[13] = Example 19, 37° C., 7 h, EV 0.0001 a.u. (x1=10 μg/mL)
[14] = Example 19, 37° C., 7 h, EV 0.001 a.u. (x1=10 μg/mL)
[15] = Example 19, 37° C., 7 h, EV 0.01 a.u. (x1=10 μg/mL)
[16] = Example 19, 37° C., 7 h, EV 0.1 a.u. (x1=10 μg/mL)
[17] = Example 19, 37° C., 7 h, EV 1 a.u. (x1=10 μg/mL)
[18] = Example 22, buffer (2), 37° C., 1 h, EV 0 (free of extracellular vesicles)
[19] = Example 22, buffer (2), 37° C., 1 h, EV 0.111 a.u.
[20] = Example 22, buffer (2), 37° C., 1 h, EV 0.333 a.u.
[21] = Example 22, buffer (2), 37° C., 1 h, EV 1 a.u. (x1=10 μg/mL)
[22] = Example 22, buffer (2), 37° C., 2 h, EV 0 (free of extracellular vesicles)
[23] = Example 22, buffer (2), 37° C., 2 h, EV 0.111 a.u.
[24] = Example 22, buffer (2), 37° C., 2 h, EV 0.333 a.u.
[25] = Example 22, buffer (2), 37° C., 2 h, EV 1 a.u. (x1=10 μg/mL)

## TAMRA-GGPLGLAGGK(TQ3) ({TAMRA}-GGPLGLAGGK(TQ3)) [Custom #2T]
[1]; Example 41, EV 5 μg/mL, reporter 5 μM, buffer (4), excitation 545±20 nm, fluorescence 588±20 nm
  Fluorescence change after 2 hours of reaction at 30° C.: 6,455 ΔRFU
[1]; MP, 1.25 μM #2T with 1.25 μM #1, EV 3.3 μg/mL
  Fluorescence change after 2 hours of reaction at 30° C.: 1,015 ΔRFU
[1]; MP, 1.25 μM #2T with 1.25 μM #2, EV 3.3 μg/mL
  Fluorescence change after 2 hours of reaction at 30° C.: 1,734 ΔRFU
[1]; MP, 2.5 μM #2T with 2.5 μM #1, EV 3.3 μg/mL
  Fluorescence change after 2 hours of reaction at 30° C.: 1,118 ΔRFU
[1]; MP, 2.5 μM #2T with 2.5 μM #2, EV 3.3 μg/mL
  Fluorescence change after 2 hours of reaction at 30° C.: 2,196 ΔRFU
[2]; [3]
  Expected value λ: 0.1255
  Number of positives: 3,313
  Positive ratio: 0.118
[2]; [4]
  Expected value λ: 0.1339
  Number of positives: 3,518
  Positive ratio: 0.1253
[2]; single reporter, reaction 4 hr
  Expected value λ (×1): 0.5022
[2]; single reporter, reaction 4 hr, at x1, from λ (×1) and 50 fL microcompartment
  Extracellular vesicle concentration: 1.0044e+10 mL⁻¹
[2]; single reporter, reaction 24 hr
  Expected value λ (×1): 0.5354
[2]; single reporter, reaction 24 hr, at x1, from λ (×1) and 50 fL microcompartment
  Extracellular vesicle concentration: 1.0709e+10 mL⁻¹

## [5-FAM]GGPLGLAGGK(TQ2)[OH] (5FAM-GGPLGLAGGK(TQ2)-OH) [Custom #2]
[1]; Example 4, EV 5 μg/mL, reporter 5 μM, 37° C., Assay buffer (Component D)
  increase in fluorescence intensity (temporal change): more significant than that from SensoLyte 520 MMP-14
[1]; Example 5, Assay buffer (Component D) of SensoLyte 520 MMP-14 Assay Kit, reporter 5 μM, 37° C.
  reaction rate per 1 μg/mL of extracellular vesicles: 83.3 ΔRFU/min
[1]; Example 8, buffer (2), reporter 5 μM, 37° C.
  reaction rate per 1 μg/mL of extracellular vesicles: 99.0 ΔRFU/min
[1]; [5]
  Km: 0.511 µM
  Vmax: 582.411 ΔRFU/min
[1]; buffer (4), reporter 5 μM, 37° C.
  extracellular vesicle concentration at which MMP14 activity was able to be detected with a 96-well plate: ≥ 1 µg/mL
[2]; [6]
  Expected value λ: 0.235
  Number of positives: 3,094
  Positive ratio: 0.21
[2]; [7]
  Expected value λ: 0.188
  Number of positives: 2,529
  Positive ratio: 0.171
[2]; Example 18, oil AE-3000 and Y25
  Extracellular vesicle concentration: 9.1×10^8 /μg of protein
[2]; Example 18, oil AE-3000 and Y25, reaction solution 3.3 μg of protein/mL
  Extracellular vesicle concentration: 3e+09 mL⁻¹
[2]; Example 18, oil Simoa
  Extracellular vesicle concentration: 7.3×10^8 /μg of protein
[2]; Example 18, oil Simoa, reaction solution 3.3 μg of protein/mL
  Extracellular vesicle concentration: 2.4e+09 mL⁻¹
[2]; [8]
  Expected value λ: 0.000138
  Number of positives: 4
  Positive ratio: 0.000138
[2]; [9]
  Expected value λ: 0.0011
  Number of positives: 32
  Positive ratio: 0.0011
[2]; [10]
  Expected value λ: 0.00915
  Number of positives: 264
  Positive ratio: 0.00911
[2]; [11]
  Expected value λ: 0.0827
  Number of positives: 2,305
  Positive ratio: 0.0794
[2]; [12]
  Expected value λ: 0.717
  Number of positives: 14,539
  Positive ratio: 0.512
[2]; [13]
  Expected value λ: 0.000104
  Number of positives: 3
  Positive ratio: 0.000104
[2]; [14]
  Expected value λ: 0.000828
  Number of positives: 24
  Positive ratio: 0.000828
[2]; [15]
  Expected value λ: 0.0092
  Number of positives: 263
  Positive ratio: 0.00916
[2]; [16]
  Expected value λ: 0.0929
  Number of positives: 2,571
  Positive ratio: 0.0887
[2]; [17]
  Expected value λ: 2.33
  Number of positives: 26,093
  Positive ratio: 0.902
[2]; Example 19, 3 hours
  Extracellular vesicle concentration: 1.3×10^9 /μg of protein
[2]; Example 19, 3 hours, reaction solution 10 μg of protein/mL, 50 fL
  Extracellular vesicle concentration: 1.3e+10 mL⁻¹
[2]; Example 19, 7 hours
  extracellular vesicles in which MMP14 activity can be detected, contained in 1 μL of the extracellular vesicles (50 μg of protein in 50 μL of PBS): 1.8×10^9
[2]; Example 19, 7 hours, reaction solution 10 μg of protein/mL, 50 fL
  Extracellular vesicle concentration: 1.8e+10 mL⁻¹
[2]; Example 19, reaction time of 3 hours
  λ at x1 from the approximation: 0.6727
[2]; Example 19, reaction time of 7 hours
  λ at x1 from the approximation: 0.8756
[2]; Example 22, after 1 hour
  expected value λ at x1 (power approximation): 0.5098
[2]; Example 22, after 2 hours
  expected value λ at x1 (power approximation): 0.7649
[2]; [18]
  Expected value λ: 0
  Number of positives: 0
  Positive ratio: 0
[2]; [19]
  Expected value λ: 0.0648
  Number of positives: 1,819
  Positive ratio: 0.0627
[2]; [20]
  Expected value λ: 0.193
  Number of positives: 5,094
  Positive ratio: 0.176
[2]; [21]
  Expected value λ: 0.497
  Number of positives: 11,360
  Positive ratio: 0.392
[2]; [22]
  Expected value λ: 0
  Number of positives: 0
  Positive ratio: 0
[2]; [23]
  Expected value λ: 0.0988
  Number of positives: 2,727
  Positive ratio: 0.0941
[2]; [24]
  Expected value λ: 0.267
  Number of positives: 6,788
  Positive ratio: 0.234
[2]; [25]
  Expected value λ: 0.774
  Number of positives: 15,608
  Positive ratio: 0.539
[2]; Simoa Discs, buffer (4), reporter 5 μM, 37° C.
  extracellular vesicle concentration at which MMP14 activity was able to be detected in the microcompartments: ≥ 1 ng/mL
